Source: PMC5966032 (Nature, 2018)

Target: the molecule itself
Experiment: crystal structure

B1: Δ25 construct of chicken ASIC1a (domain or fragment, UniProt Q1XA76 25-463, looked up)
chain: SSTLHGISHIFSYERLSLKRVVWALCFMGSLALLALVCTNRIQYYFLYPHVTKLDEVAATRLTFPAVTFCNLNEFRFSRVTKNDLYHAGELLALLNNRYEIPDTQTADEKQLEILQDKANFRNFKPKPFNMLEFYDRAGHDIREMLLSCFFRGEQCSPEDFKVVFTRYGKCYTFNAGQDGKPRLITMKGGTGNGLEIMLDIQQDEYLPVWGETDETSFEAGIKVQIHSQDEPPLIDQLGFGVAPGFQTFVSCQEQRLIYLPPPWGDCKATTGDSEFYDTYSITACRIDCETRYLVENCNCRMVHMPGDAPYCTPEQYKECADPALDFLVEKDNEYCVCEMPCNVTRYGKELSMVKIPSKASAKYLAKKYNKSEQYIGENILVLDIFFEALNYETIEQKKAYEVAGLLGDIGGQMGLFIGASILTVLELFDYAYEVIKHR
binding result: binds
